In patent publication US20250367120A1, “PHARMACEUTICAL COMPOSITION AND METHOD FOR PRODUCING SAME” (SUNSHO PHARMACEUTICAL CO., LTD., priority 2022, published 2025):

Test: Area under the curve (AUC) and increase ratio (ER) of FD-4 in plasma after oral administration to Wistar rats
Experimental: Next, FD-4 was orally administered to Wistar rats using an oral sonde so that the dosage was 0.3 mg/kg. After the administration of the sample, blood was collected six times in total until six hours after the administration of the sample, and plasma was fractionated.
It is noted that “AUCt” is AUC (ng·h/mL) of the test preparation, and “dosage t” is dosage (mg/kg) of the test preparation (target data of the test preparation obtained in the above 2).

Substance: fluorescein isothiocyanate-dextran 4 [Comparative Example 4]
- AUC (Wistar rats, FD-4 dosage 0.3 mg/kg, up to 6 hr, linear trapezoidal method): 24.3 ng·h/mL
- AUCs (reference data of standard preparation) (rat, FD-4 dosage 0.3 mg/kg): 24.3 ng·h/mL
- AUC (rat, FD-4 dosage 5.0 mg/kg): 390.5 ng·h/mL
